Data on one substance can be found in PMC10381965.

By stoichiometry N is commonly meant a count of units in the complex or per binding partner.

This assay has as its target CENP-A nucleosome (CENP-A^Nuc), histone octamer of CENP-A, H4, H2A and H2B wrapped with C0N3 or CEN3 DNA (S. cerevisiae) (UniProt P36012). Briefly: SEC-MALS; CENP-A nucleosome (C0N3 or CEN3 DNA), CENP-C, CENP-LN, CENP-OPQU+, CENP-HIK-TW, CBF1 and CBF3^Core mixed at 2 μM; cross-linked with 3 mM BS3; 10 mM Hepes pH 8.0, 80 mM NaCl, 1 mM EDTA, 0.5 mM TCEP.

“CCAN, fully assembled (CENP-C, CENP-LN, CENP-OPQU+, CENP-HIK-TW) (from UniProt P35201 1-549; P38265 1-245; P38907 1-458; Q06675 1-368; Q02732 1-369; P53298 1-406; P38313 1-324; Q12493 1-238; Q06162 1-153; Q12262 1-181; Q12748 1-733; P47167 1-239; P43618 1-361; Q2V2P8 1-89) (complex)” had a stoichiometry N of 2.
